± gives the uncertainty stated by the source.
test: protein stability index of a GFP-peptide fusion (yeast GPS) (PSI 1-4); higher = more stable; sorted into four equal gates, so the index is relative within each strain; settings: doa10∆
Method in brief: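 The protein stability index of a peptide was calculated by multiplying its read frequency in each gate by that gate's number and adding the products. The peptides were tiled 17-residue stretches of yeast proteins, fused downstream of GFP on a Cherry-expressing plasmid and carried in yeast as a pooled library. Mid-log cultures in leucine-free medium were sorted into four equal gates by GFP/Cherry ratio, and each gate's plasmids were PCR-amplified and Illumina-sequenced.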

Row | Sequence | protein stability index
1 | KYKQLLLKDDTYQLCVR [RPN3] | 1.46 ± 0.073
2 | KYLDQVLDHQRAIPFRR [RPL17B] | 2.78 ± 0.12
3 | KYLIKYNVFRQHTSFQE [CSI1] | 1.24 ± 0.069
4 | KYLKKRKIGISIDDHPY [RPC31] | 1.41 ± 0.075
5 | KYLSDIMELPGVYSDDE [SRP68] | 3.14 ± 0.25
6 | KYPMYMQLEEELMKLDG [MED6] | 2.14 ± 0.091
7 | KYSAITSSIFQESFNSV [NUT1] | 2.22 ± 0.053
8 | KYYIVSSSKSMINDENY [SRB8] | 2.91 ± 0.073
9 | LAAMAVLESHWKQDLTK [PUP1] | 3.24 ± 0.16
10 | LAASEIGISIVGRFSTI [ECM29] | 2.51 ± 0.091
11 | LADSLDRCVDPEDPYFN [DIS3] | 3.05 ± 0.095
12 | LADWRIRPLSKPMTAYA [RRP6] | 2.82 ± 0.13
13 | LAEKVEKASRQQRKQKK [RPS24A] | 3.65 ± 0.27
14 | LAGKYIPNLTAKPFQVT [FAS1] | 2.37 ± 0.06
15 | LAINAKTITSGLKYALA [RPB2] | 2.65 ± 0.057
16 | LAKAVAATIGANFIFSP [RPT4] | 2.09 ± 0.048
17 | LALEIIVRPAKGVATTR [RRP46] | 2.09 ± 0.058
18 | LALPVFHIGYFKATIQI [RPO31] | 1.51 ± 0.059
19 | LALSSNISRDFQSYIVS [COR1] | 2.03 ± 0.073
20 | LAMVIIKEFVDDLKKDH [DSN1] | 2.74 ± 0.2
21 | LARASGNYVIIIGHNPD [RPL2A] | 2.8 ± 0.087
22 | LAVIMDNIGEIDESLFN [YCG1] | 3.08 ± 0.12
23 | LAYAVLGIALIALGEDI [RPN1] | 1.73 ± 0.094
24 | LCDNFNHFSLSYKDSGL [COR1] | 2.27 ± 0.066
25 | LCYMAPMTVKLVQLPKS [POP3] | 2.37 ± 0.065
26 | LDDFGEEELFEVTKEED [RRP43] | 2.92 ± 0.11

Row | Sequence | protein stability index
27 | LDDWISIGYETELKKIT [IRR1] | 2.09 ± 0.07
28 | LDKNLIKLVKQNDELKF [RPC34] | 1.16 ± 0.077
29 | LDLMFDEVYVQNSKFLK [YJL039C/NUP192] | 2.94 ± 0.066
30 | LDNLKLKELRIDNSPQA [GRR1] | 2.65 ± 0.054
31 | LDPLEVHMLDFPNIAIR [PRP8] | 2.74 ± 0.059
32 | LDPSLRAPIYHSKFRSS [YML031W/NDC1] | 2.02 ± 0.093
33 | LDQLLVLEKKTRQASDL [RPN5] | 3.19 ± 0.12
34 | LDQVGVPKSIAKTLTYP [RPO21] | 2.74 ± 0.064
35 | LDRELLKPSMSVALHRH [RPT3] | 2.98 ± 0.082
36 | LDRIPMHSYFIFKDLVT [COB] | 1.92 ± 0.11
37 | LDTRKELWRKEQKLQTV [SMC3] | 1.79 ± 0.069
38 | LEEDSKKVNGTSYKKWS [PRP8] | 3.3 ± 0.14
39 | LEFSALSAADIVAQSEV [RPO31] | 3.01 ± 0.093
40 | LEGEELAFYLRRLTAKK [RPS8A] | 1.9 ± 0.068
41 | LEGNDIHALAAKLLQEN [FAS1] | 2.76 ± 0.063
42 | LEGSVSLPRFSKPVLIV [DIS3] | 2.67 ± 0.072
43 | LEHLHSTAFQNTPLSLP [COR1] | 2.52 ± 0.039
44 | LEIDNKDSVTECSKDMK [SIR4] | 3.46 ± 0.14
45 | LEKCEAEFKKRKIEAET [YCS4] | 2.79 ± 0.14
46 | LEKGEIELSDGSTFKVN [YJL039C/NUP192] | 3.02 ± 0.079
47 | LEKLVDHHPEGLSAREA [PRE10] | 2.92 ± 0.068
48 | LELAGMDALYEKIWFAI [SIR3] | 1.41 ± 0.095
49 | LELQVAKTFIDLESSSP [RPS7B] | 3.17 ± 0.071
50 | LELRNSVMDDILEMMPE [PRP8] | 3.53 ± 0.12
51 | LEQDLHFENAKVIDLDT [YIL149C/MLP2] | 3.08 ± 0.18
52 | LEQREQNENLPSDKSDS [SSN2] | 3.16 ± 0.07

Row | Sequence | protein stability index
53 | LERIVQIMQNPTHYKIP [RPS18A] | 2.61 ± 0.1
54 | LESADKQLEKRDYQRIN [POP4] | 2.71 ± 0.052
55 | LESKMSEVGDAFIFGLQ [SMC3] | 3.29 ± 0.061
56 | LEVFHHFFKWIEFIVYH [SRB8] | 1.13 ± 0.054
57 | LEWLENPSNTPDKDYLL [FAS1] | 3.16 ± 0.11
58 | LFGGRHYLFNTFTFTAH [SWP82] | 2.03 ± 0.042
59 | LFIGLFTRPLFVLLEIE [YCS4] | 1.82 ± 0.092
60 | LFKNYRFNFISKYFIID [YMR129W/POM152] | 1.97 ± 0.068
61 | LFLYKELVKAHLGERAA [RPC82] | 2.72 ± 0.086
62 | LFQVESAPKISSEIDRE [SIR4] | 2.35 ± 0.05
63 | LFQVEYSLEAIKLGSTA [PUP2] | 1.61 ± 0.075
64 | LFSLEKPNLNYFKSILL [SWI1] | 1.38 ± 0.056
65 | LFVCNKDPDVPLVLLQQ [POP3] | 2.57 ± 0.082
66 | LGEFSITYTPVRHGRAG [RPS15] | 1.85 ± 0.15
67 | LGGDSDEANIEIDPLTG [BRN1] | 3.05 ± 0.18
68 | LGIKKEKRIQYAKDILQ [RPB2] | 2.01 ± 0.059
69 | LGKGGAKRHRKILRDNI [HHF1] | 3.36 ± 0.26
70 | LGMGKAVEKTLALGCHF [POP7] | 1.98 ± 0.097
71 | LGRLNKLRKIAISKKNK [LIN1] | 2 ± 0.083
72 | LHGLRSFYDAIFFNIPL [YJL039C/NUP192] | 2.61 ± 0.039
73 | LHLAVGKKWFEVSQFLI [NAS6] | 2.12 ± 0.076
74 | LHPYNSRGLFEKKLMQD [YDL116W/NUP84] | 2.89 ± 0.18
75 | LHVLVAHKLKKSLDSIP [FAS2] | 2.31 ± 0.091
76 | LICPQYGTENKDGEDII [CSL4] | 3.23 ± 0.15
77 | LICQNNLNAFVDFSKYN [SRP72] | 3.1 ± 0.077
78 | LIEEEVEQDEGQCRTEL [YCS4] | 3.59 ± 0.13

Row | Sequence | protein stability index
79 | LIEKLQGFSKDTFELIK [YDL116W/NUP84] | 3.21 ± 0.12
80 | LIFGTIASKMSLAPEAD [RPT3] | 2.66 ± 0.044
81 | LIGSIRFPTKFVTQFRH [RET1] | 1.57 ± 0.056
82 | LIIRCRVVRPKSLDAET [RPO21] | 2.35 ± 0.11
83 | LIKKAVSVRKHLERNRK [RPS13] | 3.43 ± 0.26
84 | LIKMSRSPPRPPSLKII [PRP28] | 2.16 ± 0.062
85 | LISDSNINNSSVAEKEE [SWI3] | 1.6 ± 0.14
86 | LISNAIYGKKTMVIQDE [ECM29] | 1.58 ± 0.25
87 | LISSSGPIKTPVGACAT [FAS2] | 1.76 ± 0.053
88 | LITLFNKGELETQPGCN [RPO31] | 2.71 ± 0.1
89 | LITTYSKLSKNISFYKL [SIN4] | 2.18 ± 0.16
90 | LKAKNQEEEGELEHLTK [DSN1] | 3.42 ± 0.076
91 | LKDIVGQTSRTVTPAPN [ITC1] | 2.97 ± 0.064
92 | LKDLMDLCDVVESKFTE [RPC19] | 3.61 ± 0.2
93 | LKDSKDFDESLKYLDDL [RPN9] | 3.02 ± 0.21
94 | LKFNHGNYSHLMEKNRI [REC8] | 2.06 ± 0.073
95 | LKHYNGYDINYISKIGE [SWI1] | 2.81 ± 0.056
96 | LKIFKIFCIDLEVFHHF [SRB8] | 1.57 ± 0.069
97 | LKIHQSHLVVPYCPIAS [YMR129W/POM152] | 1.25 ± 0.063
98 | LKIIHTSVWAGQKRLSQ [PRP8] | 1.36 ± 0.15
99 | LKKELKLLAKELEEQES [SMC2] | 2.81 ± 0.088
100 | LKKKVVDPFTRKEWFDI [RPS1B] | 2.97 ± 0.075
101 | LKKLQSDIESANNQEYD [SMC1] | 3.19 ± 0.076

— the supplement of paper PMC9732359
